Assay results: paper PMC12102759

B1: PEX5 peptide 108-123 (Peroxisomal targeting signal 1 receptor), 16-mer library wild type / PEX14 Pex14 (PEX14 PEX14, residues 16-84) (parent)
chain 1: GVADLALSENWAQEFL
chain 2: TPGSENVLPREPLIATAVKFLQNSRVRQSPLATRRAFLKKKGLTDEEIDMAFQQSGTAADEPSSLGPAT
B2: TPTE2 peptide 92-107 (Phosphatidylinositol 3,4,5-trisphosphate 3-phosphatase TPTE2), 16-mer library wild type / TLN1 PTB (TLN1 Phosphotyrosine-binding (PTB) domain, residues 309-401) (parent)
chain 1: LADLIFTDSKLYIPLE
chain 2: GVSFFLVKEKMKGKNKLVPRLLGITKECVMRVDEKTKEVIQEWNLTNIKRWAASPKSFTLDFGDYQDGYYSVQTTEGEQIAQLIAGYIDIILK
B3: PAIP1 peptide 124-139 (Polyadenylate-binding protein-interacting protein 1), 16-mer library wild type / PABPC1 PABC (PABPC1 PABC domain, residues 544-623) (parent)
chain 1: LMSKLSVNAPEFYPSG
chain 2: PLTASMLASAPPQEQKQMLGERLFPLIQAMHPTLAGKITGMLLEIDNSELLHMLESPESLRSKVDEAVAVLQAHQAKEAA
B4: PIP5K1C peptide 640-655 (Phosphatidylinositol 4-phosphate 5-kinase type-1 gamma), 16-mer library wild type / TLN1 PTB (TLN1 Phosphotyrosine-binding (PTB) domain, residues 309-401) (parent)
chain 1: FPTDERSWVYSPLHYS
chain 2: B2 chain 2

Variants of: B1
Experiment: proteomic peptide phage display deep mutational scan (ProP-PD DMS): M13 P8 16-mer library selected against immobilised GST-tagged bait for four days (rounds), NGS of the eluted pools per day and pseudo-replica
Details: with PEX14 Pex14 (PEX14 PEX14, residues 16-84); bait immobilised on MaxiSorp plates (10 µg), library pre-cleared on GST, 2 h binding at 4 °C, five washes; one round per day, days 1-4; value from days 2 and 3; scale: average fractional NGS count over selection days 2 and 3

Screen value, by site and new letter:
chain 1 Q13: Y 0.00131, F 0, P 0.000626, R 0.000241, T 0.000462, E 0.000434, H 0.000362, G 0.000163, W 0.000116, L 0.000475
chain 1 V2: K 0, Q 0.000476, N 0, E 0.000749, Y 0.00067, W 0, T 0, I 0, R 0
chain 1 L5: N 0, G 0, Y 0.000821, S 0.000191, V 0.00065, W 0.000435
chain 1 L16: H 0.000215, D 0, R 0.000857, N 0, V 0.00389, K 0.000183, F 0, W 0.00162, P 0.000186, I 0, E 0.00013, G 0.00105
chain 1 S8: G 0.000241, I 0.00069, Q 0, D 0, K 0, W 9.4e-05, Y 0.0012, A 0.000717, E 0.000967, P 9.07e-05, H 0.0106
chain 1 L7: N 0, P 0.000675, V 0.000339, G 0.000778, Q 0, S 0.00013, H 0, K 0.000262
chain 1 N10: V 0.000297, P 0.00066, G 0, M 6.63e-05, I 0.000414, S 0.000139, L 0.000191, W 0.000211, D 0, K 0.000111, F 0.000356, Y 0.00069, T 0.000176
chain 1 W11: Y 0.00018, F 0

Variants of: B2
Experiment: as above
Details: with TLN1 PTB (TLN1 Phosphotyrosine-binding (PTB) domain, residues 309-401); bait immobilised on MaxiSorp plates (10 µg), library pre-cleared on GST, 2 h binding at 4 °C, five washes; one round per day, days 1-4; value from days 2 and 3; keep out of graded; scale: average fractional NGS count over selection days 2 and 3

Screen value: each site, then its substitutions
chain 1 D3: H 0.000117, W 0, F 9.05e-05, A 4.9e-05
chain 1 E16: R 3.05e-05
chain 1 L11: S 3.91e-05, A 6.5e-05, W 0, F 0.000112, Y 4.09e-05
chain 1 S9: K 0
chain 1 Y12: L 0, Q 0
chain 1 K10: W 6.74e-05, V 7.83e-05
chain 1 A2: V 0.000107, F 2.74e-05
chain 1 L15: E 6.68e-05, T 3.85e-05
chain 1 D8: K 2.8e-05, S 4.41e-05, V 7.58e-05, M 0, H 2.4e-05
chain 1 L4: R 0, K 6.56e-05, N 5.11e-05
chain 1 F6: Y 8.2e-05, S 0, M 0, G 0, A 0, P 9.98e-05
chain 1 T7: R 6.19e-05, E 8.56e-05, I 3.48e-05, A 4.1e-05, F 3.05e-05
chain 1 I13: Q 8.06e-05, S 9.27e-05, M 3.76e-05, H 7.12e-05, W 0.000116, Y 5.85e-05, D 0
chain 1 P14: M 0, R 0, F 0, E 0, Y 7.88e-05, S 2.74e-05, Q 0

Variants of: B3
Experiment: as above
Details: with PABPC1 PABC (PABPC1 PABC domain, residues 544-623); bait immobilised on MaxiSorp plates (10 µg), library pre-cleared on GST, 2 h binding at 4 °C, five washes; one round per day, days 1-4; value from days 2 and 3; keep out of graded; scale: average fractional NGS count over selection days 2 and 3

Screen value of substitutions, site by site:
chain 1 N8: Q 0.000156, H 0.000197, K 0, I 9.39e-05, V 0.000243
chain 1 E11: W 0, H 0.000179, L 0.000185
chain 1 P10: W 0, V 0.000185
chain 1 F12: D 0, A 0
chain 1 V7: K 0, T 0.000112, I 0.00011, M 0, L 1.45e-05
chain 1 S3: Y 0.00023, F 4.71e-05, R 0
chain 1 K4: S 0.000112, F 0.000173, W 0.000136
chain 1 Y13: F 8.82e-05, P 0, N 3.07e-05
chain 1 A9: T 0.000154, L 0, M 0, G 0, V 8.33e-05
chain 1 M2: Y 0, D 9.64e-06, R 0.000185, F 1.57e-05, H 0.000247
chain 1 G16: P 0.000264, L 0.000165
chain 1 S6: K 0, Q 4.7e-05
chain 1 P14: T 8.32e-05, F 0.000167, S 0.000163, N 0, H 4.17e-05
chain 1 L5: I 6.08e-05, S 0, F 7.31e-05, V 0, Y 5.13e-05, E 0.00011
chain 1 S15: L 0.000141

Variants of: B4
Experiment: as above
Details: with TLN1 PTB (TLN1 Phosphotyrosine-binding (PTB) domain, residues 309-401); bait immobilised on MaxiSorp plates (10 µg), library pre-cleared on GST, 2 h binding at 4 °C, five washes; one round per day, days 1-4; value from days 2 and 3; keep out of graded; scale: average fractional NGS count over selection days 2 and 3

Screen value, by site and new letter:
chain 1 S11: D 0, M 3.45e-05, A 7.18e-05, L 0, I 0, P 7.58e-05
chain 1 L13: F 0.00025, I 0.000497, G 0.000132, M 0.000592, D 0, V 0.00019, Y 0.000435, A 0.000116, Q 5.12e-05, N 4.75e-05, S 0.000183, W 0.00176
chain 1 P12: I 0.000302, H 5.79e-05, Q 0.000705, S 0.000121, F 7.27e-05, M 7.3e-05, T 0.000179, W 0.000107, N 0.000185, G 0.000862, L 0.000701, R 0.000314, E 0.00013, V 9.3e-05, A 0.000632, K 5.51e-05
chain 1 D4: G 0.000716, P 7.86e-05, Q 0.000121, F 0.00015, I 7.24e-05, R 0.000156, H 0.000241, V 5.15e-05, M 2.74e-05, L 0.000325, E 2.74e-05, T 0.000121, N 3.05e-05, A 0.000109, W 8.26e-05, S 0.000264
chain 1 S16: R 0.000132, G 0.00097, N 0.000165, M 0.000225, I 0.00119, E 0.000308, Q 5.76e-05, T 0.000518, Y 0.000212, F 0.000114, H 0.00034, L 0.000143, W 3.45e-05, A 0.000894, V 0.000729, P 0.000199
chain 1 S7: T 0.000136, R 0.000434, I 0.00143, D 8.2e-05, K 0.000214, H 0.00017, Y 0.000136, E 6.81e-05, W 0.000136, G 6.31e-05, L 0.00013, V 6.47e-05, M 0.000552, N 3.76e-05, P 0
chain 1 H14: A 0.000225, N 3.05e-05, F 2.74e-05, I 4.44e-05, L 9.59e-05, G 0.00022, Q 0.000124, S 0.000388, V 0.000348, T 0.00119, R 0.000159, Y 0.000112, W 5.14e-05, M 0.00119, D 0.000394, P 0.000231, E 0.000433, K 0.00016
chain 1 P2: S 0.000281, H 2.4e-05, Q 7.98e-05, F 2.4e-05, R 5.46e-05, A 4.1e-05, D 0.000759, N 0.000183, T 0.000173, E 0.000182, G 9.49e-05, W 0.000111, Y 6.83e-05, L 0.000825, V 0.000569
chain 1 T3: R 0.000107, N 8.2e-05, Q 0.000354, M 2.4e-05, A 8.91e-05, H 0.000204, G 9.69e-05, L 0.00116, P 0.000173, D 5.93e-05, I 5.15e-05
chain 1 R6: W 0.000249, Q 9.86e-05, V 0.000984, D 0.000455, K 9.21e-05, E 0, G 5.92e-05, I 0.000686, H 3.76e-05, F 0, N 8.35e-05, L 0.000156, M 0.00014, A 0.00241, Y 0.000115, T 0.000205, S 0.00302, P 0.000213
chain 1 E5: V 0.00021, M 0.000263, G 0.000212, A 0.000188, H 0.000485, K 0.000102, N 0.00102, I 0.000716, S 0.000272, P 0.00165, Y 0.000182, W 0.000904, L 0.00192, F 0.000369, Q 6.1e-05, T 0.000451
